B1: LAR382: Full length recombinant D. uncinatum LAR polypeptide (SEQ ID NO: 29) with N-terminal T7 Tag, expressed in E. coli from pET3a (protein, listed as Desmodium uncinatum)
chain: MTVSGAIPSMTKNRTLVVGGTGFIGQFITKASLGFGYPTFLLVRPGPVSPSKAVIIKTFQDKGAKVIYGVINDKECMEKILKEYEIDVVISLVGGARLLDQLTLLEAIKSVKTIKRFLPSEFGHDVDRTDPVEPGLTMYKEKRLVRRAVEEYGIPFTNICCNSIASWPYYDNCHPSQVPPPMDQFQIYGDGNTKAYFIDGNDIGKFTMKTIDDIRTLNKNVHFRPSSNCYSINELASLWEKKIGRTLPRFTVTADKLLAHAAENIIPESIVSSFTHDIFINGCQVNFSIDEHSDVEIDTLYPDEKFRSLDDCYEDFVPMVHDKIHAGKSGEIKIKDGKPLVQTGTIEEINKDIKTLVETQPNEEIKKDMKALVEAVPISAMG
modifications: N-terminal T7 tag
B2: LAR: Leucoanthocyanidin reductase enzyme partially purified 2,360 fold from young leaves of Desmodium uncinatum (protein, listed as Desmodium uncinatum)
chain: B1 chain
B3: LAR317: Truncated recombinant LAR, amino acids 1-317 of SEQ ID NO: 29, with N-terminal RGS-6×His epitope, expressed in E. coli (protein, listed as Desmodium uncinatum)
chain: MTVSGAIPSMTKNRTLVVGGTGFIGQFITKASLGFGYPTFLLVRPGPVSPSKAVIIKTFQDKGAKVIYGVINDKECMEKILKEYEIDVVISLVGGARLLDQLTLLEAIKSVKTIKRFLPSEFGHDVDRTDPVEPGLTMYKEKRLVRRAVEEYGIPFTNICCNSIASWPYYDNCHPSQVPPPMDQFQIYGDGNTKAYFIDGNDIGKFTMKTIDDIRTLNKNVHFRPSSNCYSINELASLWEKKIGRTLPRFTVTADKLLAHAAENIIPESIVSSFTHDIFINGCQVNFSIDEHSDVEIDTLYPDEKFRSLDDCYEDFV
modifications: N-terminal RGS-6xHis tag

Experiments:
[1] = LAR enzyme activity of recombinant LAR protein in E. coli extracts (radio-HPLC); type: biochemical; settings: bacterial protein extracts after induction, HPLC system IIa
Experimental: LAR was assayed essentially as described by Tanner and Kristiansen (1993). The standard assay contained in total volume of 100 μl assay buffer containing 10 mg glycerol, 10 μmol NaPi, 0.5 μmol NADPH, 0.1 μmol DDT, all adjusted to pH7 with NaOH, 0.25 nmol [^3H]-3,4-cis-leucocyanidin (1 μCi), or other suitable flavan-3,4-diol substrate (Table 2), and enzyme extract. The assay was initiated by the addition of an appropriate amount of enzyme extract and incubated at 30° C. for 30 min. The incubation was terminated by extraction with 0.2 ml ethyl acetate containing 10 nmol of unlabelled catechin as carrier. The ethyl acetate extracts were dried under a stream of nitrogen at room temperature. The residue was dissolved in 100 μl of water and analyzed by radio-HPLC using system II (see above and Table 2). In each radio-chromatogram of the assay mixtures derived from the leaf extracts referred to herein, only the substrate, 3-4-cis-leucocyanidin, or the product, catechin were detected.
The complete amino acid coding sequence of the LAR cDNA was introduced into the BamHI site of the pET3a expression vector to express the LAR382 polypeptide containing the 14 amino acid N-terminal T7 Tag. The resultant expression construct was then introduced into E. coli strain Rosetta(DE3) RARE/pLysS.
A truncated form of LAR comprising amino acids 1-317 was also introduced into the BamHI and HindIII sites of pQE30 expression vector to express the LAR317 polypeptide containing the 10 amino acid N-terminal RGS-6×His epitope. The resultant expression construct was then introduced into E. coli strain XL1 Blue.
Expression of the full length recombinant LAR382 protein, or the truncated form LAR317, was induced as described in the preceding Example. Bacterial protein extracts were assayed for LAR enzyme activity, essentially as described in Example 1.

[2] = Storage stability of partially purified LAR enzyme preparation; type: physicochemical; settings: 2,360 fold purified concentrate mixed with equal volume of glycerol, stored at −20 C
Experimental: Fractions with LAR activity were combined and then concentrated to a final volume of 1 ml by applying nitrogen over a YM10 membrane (Amicon). The concentrate was mixed with an equal volume of glycerol and stored at −20 C.
The final yield of enzyme activity was 8.7% and purification was 2,360 fold.

Molecule | LAR enzyme activity (reduction of leucocyanidin to catechin) [1] | LAR enzyme activity (reduction of leucocyanidin to catechin) ([1]; listed as pET LAR382) | stability of LAR enzyme activity on storage [2] | LAR enzyme activity (reduction of leucocyanidin to catechin) ([1]; listed as pET LAR317)
B1 | catalysed the reduction of [4-^3H]-2,3-trans-3,4-cis-leucocyanidin | LAR activity sufficient to convert all of the leucocyanidin substrate into catechin | – | –
B2 | – | – | stable for up to one year | –
B3 | catalysed the reduction of [4-^3H]-2,3-trans-3,4-cis-leucocyanidin | – | – | LAR activity sufficient to convert all of the leucocyanidin substrate into catechin

From patent US7892803B2, “Gene and uses therefor to modify pasture qualities of crops” (Commonwealth Scientific and Industrial Research Organisation, priority 2001, dated 2011)
